The text below walks through data of paper PMC7239654, “R-spondins engage heparan sulfate proteoglycans to potentiate WNT signaling” (eLife, 2020).

One assay has as its target T1, glycosylated GPC4 (Homo sapiens (assumed), UniProt O75487, heparan sulfate chains (glycosylated)).
T1 construct: glypican 4 (GPC4), glycosylated recombinant protein, R and D Systems Cat. # 9195-GP; also called glypican 4; source: bought: R and D Systems
The experiment in a line: ELISA; 96-well plate coated with 5 μg/ml of the GPC protein; HS20 added in serial 2-fold dilutions starting from 1 μg/ml, 1 hr at RT; washed with PBST; detected with goat anti-human kappa chain HRP conjugate and TMB, absorbance at 450 nm. The settings on record: both partners purified.

Another assay deals with T2, glycosylated GPC3 (Homo sapiens (assumed), UniProt P51654, heparan sulfate chains (glycosylated)).
T2 construct: glypican 3 (GPC3), glycosylated recombinant protein, R and D Systems Cat. # 2119-GP; also called glypican 3; source: bought: R and D Systems
T2 sequence (P51654 25-580): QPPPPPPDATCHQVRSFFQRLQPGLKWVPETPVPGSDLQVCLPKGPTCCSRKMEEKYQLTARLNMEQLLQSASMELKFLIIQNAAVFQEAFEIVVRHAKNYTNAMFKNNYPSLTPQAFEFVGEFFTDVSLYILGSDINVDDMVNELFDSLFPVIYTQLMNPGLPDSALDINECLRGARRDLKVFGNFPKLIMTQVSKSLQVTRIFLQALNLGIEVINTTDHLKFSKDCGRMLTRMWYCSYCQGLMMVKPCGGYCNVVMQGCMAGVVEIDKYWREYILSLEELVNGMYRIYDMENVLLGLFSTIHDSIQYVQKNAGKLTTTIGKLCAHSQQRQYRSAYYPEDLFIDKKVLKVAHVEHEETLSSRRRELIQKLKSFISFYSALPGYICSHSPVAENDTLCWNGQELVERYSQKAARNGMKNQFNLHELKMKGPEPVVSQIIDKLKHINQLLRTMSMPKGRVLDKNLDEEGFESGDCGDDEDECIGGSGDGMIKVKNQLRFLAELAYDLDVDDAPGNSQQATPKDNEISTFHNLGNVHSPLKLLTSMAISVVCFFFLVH
The assay is described as above. The conditions noted are these: both partners purified.

T1 sequence (O75487 19-529): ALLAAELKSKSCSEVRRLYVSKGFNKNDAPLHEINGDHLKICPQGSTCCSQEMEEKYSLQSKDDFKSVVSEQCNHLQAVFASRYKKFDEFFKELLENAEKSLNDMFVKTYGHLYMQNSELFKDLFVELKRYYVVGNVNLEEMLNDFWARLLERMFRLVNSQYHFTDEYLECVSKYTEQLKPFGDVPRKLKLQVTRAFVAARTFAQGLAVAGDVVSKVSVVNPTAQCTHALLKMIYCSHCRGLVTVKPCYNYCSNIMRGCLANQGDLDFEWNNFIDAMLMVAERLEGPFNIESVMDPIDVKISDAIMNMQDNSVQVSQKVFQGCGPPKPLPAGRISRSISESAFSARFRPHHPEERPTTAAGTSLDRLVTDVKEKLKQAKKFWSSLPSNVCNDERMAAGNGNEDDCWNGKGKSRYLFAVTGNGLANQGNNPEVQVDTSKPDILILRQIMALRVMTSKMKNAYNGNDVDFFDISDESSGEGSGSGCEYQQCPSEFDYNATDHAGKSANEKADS

B1: HS20 scFv (scFv, V domains shown)
VH: EVQLLESGGGLVQPGGSLRLSCAASGFTFSSYAMSWVRQAPGKGLEWVSTIQKQGLPTQYADSVKGRFTISRDNSKNTLYLQMNSLRAEDTAVYYCAKNRAKFDYWGQGTLVTVSS
VL: DIQMTQSPSSLSASVGDRVTITCRASQSISSYLNWYQQKPGKAPKLLIYAASMLQSGVPSRFSGSGSGTDFTLTISSLQPEDFATYYCQQNRGFPLTFGQGTKVEIK
notes: it was detected through its human kappa chain
B1: the binding result with glycosylated GPC4 and with glycosylated GPC3 was “binds” each time.
